Measured values: US20200054764A1, “MEDICAL USE OF ANTI-C MET ANTIBODY-CYTOTOXIC DRUG CONJUGATE” (priority 2016, published 2020)

Columns and labels:
MKN45 cells = assay: FACS binding to cell line MKN45, which highly expresses c-Met; parameters: species or system human; details: flow cytometry, read-out: MKN45/FCAS Binding activity
Experimental: A FACS method was used to detect the binding activity of c-Met humanized antibodies with the cell line MKN45, which highly expresses c-Met.
MKN45 cells (JCRB, Cat No.: JCRB0254) were resuspended in RPMI1640 medium (GIBCO, Cat No.: 11835-030) which contains 10% (v/v) fetal calf serum (FBS GIBCO, Cat No.: 10099-141) and Penicillin/Streptomycin (GIBCO, Cat No.: 15070-063) to reach 10,000,000 cells/mL. 2 mL of resuspended MKN45 cells was added to 96-well microtiter plate (Corning, Cat No.: 3799) at 150,000 cells/well, and 8 concentrations of c-Met antibody (5-fold gradient diluted, starting from 20 μg/mL) were added to the corresponding wells, and the final volume was 100 μL. The plate was incubated for 1 hour at 4° C. FACS buffer (PBS comprising 2.5% (v/v) FBS (Hyclone, Cat: SH30256.01B)) was added. The plate was centrifuged under 4° C. at 1300 rmp for 4 minutes, and the supernatant was discarded. This procedure was repeated three times. 100 μL of secondary antibodies (Fluorescence labeled goat-anti-mouse secondary antibodies with 1:200 dilution, Biolegend, Cat No. 405307; Fluorescence labeled anti-human secondary antibody with 1:30 dilution, Biolegend, Cat No. 409304) were added to each well, and the plate was incubated for 1 hour at 4° C. […] FACS buffer was added to resuspend the cells, and the prepared samples were detected by flow cytometry (BD FACS Array).

[1] = test system: MKN45 cells expressing c-Met; assay: Endocytosis of anti c-Met antibody in MKN45 cells (FACS); assay type: cell-based, human; details: MKN45, 10 μg/mL antibody
Description: Antibodies of the invention bind to human c-Met, and have very good in vitro activity and good activity in inhibiting tumor activity in vivo. […] In order to detect whether the antibodies would be internalized into the cell along with human c-Met once bound to human c-Met, human gastric cancer cell line MKN45 (JCRB, Cat No.: JCRB0254) expressing c-Met was used for evaluation.
MKN45 cells were resuspended to 10,000,000 cells/mL in RPMI 1640 medium (GIBCO, Cat No.: 11835-030), which contains 10% (v/v) FBS (GIBCO, Cat No.: 10099-141) and penicillin/streptomycin (GIBCO, Cat No.: 15070-063). 2 mL resuspended MKN45 cells were added to a 96-well microtiter plate with 250,000 cells/well, and 10 μg/mL of c-Met antibody was added to the corresponding wells and the final volume was 100 μL. The plate was incubated at 4° C. for 1 hour. FACS buffer (phosphate buffer solution including 2.5% fetal bovine serum; Hyclone, Cat: SH30256.01B) was added and the plate was centrifuged at 4° C., 1300 rpm for 4 minutes. The supernatant was discarded and this procedure was repeated three times. 100 μL secondary antibody solution (Fluorescence labeled goat anti mouse secondary antibodies at 1:200 dilution, Biolegend, Cat #405307; Fluorescence labeled anti-human secondary antibody at 1:30 dilution, Biolegend, Cat #409304) was added into each well. The plate was incubated at 4° C. for 1 hour. FACS buffer was added and the plate was centrifuged at 4° C., 1300 rpm for 4 minutes. The supernatant was discarded and this procedure was repeated three times. Complete cell culture medium (RPMI 1640 medium with 10% FBS) was added and was incubated at 37° C. in 5% CO2 for 0, 0.5, 1, 2, 4 hours. 5 μL 7-AAD (Biolegend, Cat:420403) was added to 100 μL FACS buffer which was added to each well, and the plate was incubated at 4° C. for 30 minutes. FACS buffer was added and the plate was centrifuged at 4° C., 1300 rpm for 4 minutes. The supernatant was discarded and this procedure was repeated three times. 200 μL Stripping buffer (0.05 M glycine, pH 3.0; 0.1 M NaCl, mixed at 1:1 (v/v)) was added to each well. The cells were resuspended and were incubated for 7 minutes at room temperature. The cells were centrifuged at room temperature at 1300 rpm for 4 minutes, and the supernatant was discarded. 200 μL neutralizing wash buffer (0.15M trihydroxymethyl aminomethane, pH 7.4) was added to each well, the cells were resuspended and centrifuged at room temperature at 1300 rpm for 4 minutes, and the supernatant was discarded. 200 μL FACS buffer was added and the cells were resuspended. The prepared samples were detected by flow cytometry (BD FACS Calibur).
Endocytosis of c-Met antibody %=(intensity of fluorescence at each time point−mean intensity of fluorescence at time 0)/mean intensity of fluorescence at time 0.

[2] = Biophysical stability: deamination by LC-MS; assay type: physicochemical; details: 4° C., 3.5 months
Experimental: To evaluate the biophysical stability of the anti c-Met antibodies of the invention, such as the presence of glycosylation and deamination sites and stability, LC-MS analysis was used.
The molecular weight of the heavy and light chains was directly detected by LC-MS to analyze glycosylation. Deamination was analyzed by LC-MS at 4° C. for long time (at least 3 months), or at 40° C. for 21 days under an accelerated condition. Samples treated with different conditions were diluted to 2 mg/mL with pH 7.2 Tris-HCl; final concentrations of 10 mM of TCEP and 6M of urea (AMRESCO, Cat #0378)3 were added, then the samples were incubated for 20 minutes at 37° C. IAA (Sigma-Aldrich, Cat # I1149) with a final concentration of 20 mM was added and was incubated for 15 minutes in darkness to protect the sulfhydryl group. The pH of the sample was adjusted by dilution with Tris-HCl, pH 7.2, and protease (Sigma-Aldrich, Cat # T6567) was added at a ratio by weight of 10:1 (protein: enzyme). The samples were incubated at 37° C. for 25 minutes, and then formic acid with a final concentration of 0.1% (Fluca, Cat #94318) was added to terminate the reactions. Samples were centrifuged and analyzed by LC-MS.
BiopharmaLynx was used to analyze the presence of deamination. […] Peak area was obtained by integration, and the percentages of deamination and oxidation product were calculated.

B1: Ab-9 (antibody)
heavy: QVTLKESGPVLVKPTETLTLTCTVSGFSLPNYGVHWVRQPPGKALEWLAVIWSGGSTNYAAAFVSRLRISKDTSKSQVVFTMNNMDPVDTATYYCARNHDNPYNYAMDYWGQGTTVTVSSASTKGPSVFPLAPCSRSTSESTAALGCLVKDYFPEPVTVSWNSGALTSGVHTFPAVLQSSGLYSLSSVVTVPSSNFGTQTYTCNVDHKPSNTKVDKTVERKCCVECPPCPAPPVAGPSVFLFPPKPKDTLMISRTPEVTCVVVDVSHEDPEVQFNWYVDGVEVHNAKTKPREEQFNSTFRVVSVLTVVHQDWLNGKEYKCKVSNKGLPAPIEKTISKTKGQPREPQVYTLPPSREEMTKNQVSLTCLVKGFYPSDIAVEWESNGQPENNYKTTPPMLDSDGSFFLYSKLTVDKSRWQQGNVFSCSVMHEALHNHYTQKSLSLSPGK
light: DIVLTQSPASLAVSPGQRATITCRANKSVSTSTYNYLHWYQQKPGQPPKLLIYLASNLASGVPARFSGSGSGTDFTLTINPVEANDTANYYCQHSRDLPPTFGQGTKLEIKRTVAAPSVFIFPPSDEQLKSGTASVVCLLNNFYPREAKVQWKVDNALQSGNSQESVTEQDSKDSTYSLSSTLTLSKADYEKHKVYACEVTHQGLSSPVTKSFNRGEC
EC50 (MKN45 cells): 1.6 nM
endocytosis % ([1]; 0 h): 0%
endocytosis % ([1]; 0.5 h): 26%
endocytosis % ([1]; 1 h): 32%
endocytosis % ([1]; 2 h): 32%
endocytosis % ([1]; 4 h): 31%
Analysis of deamination: percentage of deaminated molecules [2]: 0.66%
